Data as given in patent US20200289560A1 (RUPRECHT KARLS UNIVERSIT T HEIDELBERG, published 2020).

Molecular target: T1, human pyruvate kinase M2 (PKM2) (human, UniProt P14618 1-531)
T1 construct: also called tetrameric PK M2; human PK M2
Assay: ultrafiltration (Amicon 30k) of equimolar 2 µM human PK M2 and 2 µM human HMGB1, Western blot of filtrate and retentate
Procedure: Ultrafiltration of the PK M2-HMGB1 complex: equimolar amounts of HMGB1 and PKM2 were mixed in a final volume of 300 μl and filtrated (14000 g, 4° C.) to a final volume of 15 μl in an Amicon Ultra 0.5 ml 30k device (Merck-Millipore, Darmstadt, Germany). The retentate was adjusted to the original volume after centrifugation. Then filtrate and retentate were analyzed by Western Blot. For controls HMGB1 and PKM2 were also analyzed alone. Pure HMGB1 (2 μM) suited as a negative control.

T1 sequence (P14618 whole entry): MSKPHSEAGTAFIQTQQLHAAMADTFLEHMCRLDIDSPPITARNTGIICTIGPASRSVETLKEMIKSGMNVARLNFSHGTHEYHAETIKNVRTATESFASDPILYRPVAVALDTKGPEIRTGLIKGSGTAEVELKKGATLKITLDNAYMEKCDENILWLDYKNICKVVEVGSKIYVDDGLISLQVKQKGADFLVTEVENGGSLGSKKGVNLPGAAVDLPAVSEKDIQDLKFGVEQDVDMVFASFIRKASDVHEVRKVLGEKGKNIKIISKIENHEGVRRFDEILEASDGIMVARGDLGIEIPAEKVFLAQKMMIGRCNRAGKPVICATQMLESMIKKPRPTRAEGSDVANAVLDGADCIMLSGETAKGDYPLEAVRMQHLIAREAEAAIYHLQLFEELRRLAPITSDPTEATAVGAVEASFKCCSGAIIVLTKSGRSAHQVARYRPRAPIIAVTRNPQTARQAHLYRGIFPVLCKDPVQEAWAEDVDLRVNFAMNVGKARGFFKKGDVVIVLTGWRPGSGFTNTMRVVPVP

B1: recombinant human HMGB1 protein (High Mobility Group Box 1 polypeptide) (other)
chain: MGKGDPKKPRGKMSSYAFFVQTCREEHKKKHPDASVNFSEFSKKCSERWKTMSAKEKGKFEDMAKADKARYEREMKTYIPPKGETKKKFKDPNAPKRPPSAFFLFCSEYRPKIKGEHPGLSIGDVAKKLGEMWNNTAADDKQPYEKKAAKLKEKYEKDIAAYRAKGKPDAAKKGVVKAEKSKKKKEEEEDEEDEEDEEEEEDEEDEDEEEDDDDE
notes: also called rhHMGB1; 125I-labelled HMGB1
B1: binds.
